What is called Km is the concentration of substrate that gives half-maximal velocity. A word on the Vmax: it is the rate approached at saturating substrate.

The format of series [1] is biochemical, M. tuberculosis. The settings on record: pH 8.

B1: LIPY: M. tuberculosis long-chain TG hydrolase, HSL family lipase, expressed His-tagged in E. coli (protein, listed as Mycobacterium tuberculosis)
chain: EYVVAIHGGAFILPPSIFHWLNYSVTAYQTGATVQVPIYPLVQEGGTAGTVVPAMAGLSNVSVVGDSAGGNLALAAAQYMVSQGNPVPSSMVLLSPWLDVGTWQISQAWAGNLAVNLPPTYVYSGSLDPLAQQAVVLEHTAVVQGAPFSFVLAPWQIHDWILLTPWGLLSWPQINQQL
modifications: His6 tag
notes: M. tuberculosis long-chain TG hydrolase, HSL family lipase, expressed His-tagged in E. coli
In series [1], B1 yielded a TG hydrolase activity of 48.6 nmol/mg/min. Moreover, the “Rate of [14C]diolein hydrolysis” value (20 mM diolein emulsion) was 316.8 ± 9.0 nmol/mg/min. Further, the Storage stability entry (60 days at 4° C. and 4 cycles of freezing at −20° C. followed by thawing) was “retained nearly all of its original activity”. For the same molecule, the “Temperature stability of lipase activity” value (held at 50° C. or higher for 15 min prior to assay) was “dropped off sharply”. The “Fatty acid release from other substrates” value (phosphatidylcholine, phosphatidyl ethanolamine or hexadecyl palmitate, data not shown) is “did not show any fatty acid release”. Further, the Km (read-out: apparent Km, triolein, double-reciprocal plot) came out at 7.57 mM. Moreover, where the note is “triolein, double-reciprocal plot”, the Vmax was found to be 653.3 nmol/mg/min.

B2: LIPV: M. tuberculosis putative lipase/esterase gene product expressed in E. coli (protein, UniProt L0TC47 1-261, looked up)
Lipase LipV: MIIDLHVQRYGPSGPARVLTIHGVTEHGRIWHRLAHHLPEIPIAAPDLLGHGRSPWAAPWTIDANVSALAALLDNQGDGPVVVVGHSFGGAVAMHLAAARPDQVAALVLLDPAVALDGSRVREVVDAMLASPDYLDPAEARAEKATGAWADVDPPVLDAELDEHLVALPNGRYGWRISLPAMVCYWSELARDIVLPPVGTATTLVRAVRASPAYVSDQLLAALDKRLGADFELLDFDCGHMVPQAKPTEVAAVIRSRLGPR
In series [1], B2 showed a TG hydrolase activity of 0 nmol/mg/min.

B3: LIPU: M. tuberculosis putative lipase/esterase gene product expressed in E. coli (protein, UniProt O53424 1-297, looked up)
Esterase LipU: MAVRPVLAVGSYLPHAPWPWGVIDQAARVLLPASTTVRAAVSLPNASAQLVRASGVLPADGTRRAVLYLHGGAFLTCGANSHGRLVELLSKFADSPVLVVDYRLIPKHSIGMALDDCHDGYRWLRLLGYEPEQIVLAGDSAGGYLALALAQRLQEVGEEPAALVAISPLLQLAKEHKQAHPNIKTDAMFPARAFDALDALVASAAARNQVDGEPEELYEPLEHITPGLPRTLIHVSGSEVLLHDAQLAAAKLAAAGVPAEVRVWPGQVHDFQVAASMLPEAIRSLRQIGEYIREATG
modifications: expressed in E. coli
In series [1], B3 showed a TG hydrolase activity of 0 nmol/mg/min.

These data come from patent US7601357B2 (priority 2005, dated 2009).
